Source: publication PMC7172368 (Antiviral Research, 2007)

Target: the molecule itself
Experiment: native gel or EMSA

B1: recombinant porcine ficolin α with C-terminal V5 and 6 x His tags (natural protein)
chain: not shown
binding result: binds
